This is an account of results in patent US20230322924A1 (Janssen / Centocor, published 2023).

Substitutions are numbered along the chain they refer to. Numbers in names are those of the source. Like-named read-outs stand apart in the source and are kept apart here.

For test [1], the target named is T1, human CD3 on human T cells (human, UniProt P07766 23-207).
T1 construct: Native TCR-CD3 complex on cells; also called primary human T cells; human pan T cells
Briefly: flow cytometry, Jurkat CD3+ (E6-1).

Test [2] concerns the target T2, human CD3e/d complex on cells transiently transfected with pOPT-CD3e/d-hum-mix (human, UniProt P07766 23-126; P04234 22-171).
T2 construct: Tagged screening constructs
Briefly: CELISA, hybridoma supernatant. As to the method:
(§1) Hybridoma supernatants from fusions BLW (with magnetic bead depletion of lymphocytes) and BLX (without magnetic bead depletion of lymphocytes) were analyzed a) by a cell-based ELISA (CELISA) on cells transiently transfected with human and cynomolgus cDNA cloned into screening vectors: pOPT-CD3e-hum-epsilon-TCE.OMT+pOPT-CD3d-hum-delta.OMT, 1:1 (pOPT-CD3e/d-hum-mix) and pcDNA3.1-CD3e-cyn-[…]+pcDNA3.1-CD3d-cyn-delta, 1:1 (pcDNA3.1-CD3e/d-cyn-mix). For CELISA negative control, non-transfected mammalian cells were incubated with hybridoma supernatants and detected with the secondary Bethyl antibody. For a CELISA transfection control, mammalian cells, transfected with the constructs described above, were detected with anti-tag antibody.

The target of test [3] is T3, cynomolgus CD3e/d complex on cells transiently transfected with pcDNA3.1-CD3e/d-cyn-mix (cynomolgus, UniProt Q95LI5 22-198; Q95LI8 22-171).
T3 construct: Tagged screening constructs
T3 sequence (Q95LI5 22-198 limits assumed, chain 1 of 2): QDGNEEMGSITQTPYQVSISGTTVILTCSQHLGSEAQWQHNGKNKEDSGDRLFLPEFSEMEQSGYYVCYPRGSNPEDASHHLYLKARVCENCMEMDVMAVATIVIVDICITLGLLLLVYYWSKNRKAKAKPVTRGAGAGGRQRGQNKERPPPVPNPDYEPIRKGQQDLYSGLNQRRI
T3 sequence (Q95LI8 22-171 limits assumed, chain 2 of 2): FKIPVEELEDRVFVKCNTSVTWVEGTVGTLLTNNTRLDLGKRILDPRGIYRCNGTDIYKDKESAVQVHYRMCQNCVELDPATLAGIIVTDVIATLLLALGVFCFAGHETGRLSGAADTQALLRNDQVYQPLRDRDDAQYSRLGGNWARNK
Kind of test: CELISA, hybridoma supernatant. How it is done: as §1

The target of test [4] is T4, human PSMA on cells (LNCaP) (human, UniProt Q04609 1-750).
T4 construct: whole, on cells; also called LNCaP cells
T4 sequence (Q04609 whole entry): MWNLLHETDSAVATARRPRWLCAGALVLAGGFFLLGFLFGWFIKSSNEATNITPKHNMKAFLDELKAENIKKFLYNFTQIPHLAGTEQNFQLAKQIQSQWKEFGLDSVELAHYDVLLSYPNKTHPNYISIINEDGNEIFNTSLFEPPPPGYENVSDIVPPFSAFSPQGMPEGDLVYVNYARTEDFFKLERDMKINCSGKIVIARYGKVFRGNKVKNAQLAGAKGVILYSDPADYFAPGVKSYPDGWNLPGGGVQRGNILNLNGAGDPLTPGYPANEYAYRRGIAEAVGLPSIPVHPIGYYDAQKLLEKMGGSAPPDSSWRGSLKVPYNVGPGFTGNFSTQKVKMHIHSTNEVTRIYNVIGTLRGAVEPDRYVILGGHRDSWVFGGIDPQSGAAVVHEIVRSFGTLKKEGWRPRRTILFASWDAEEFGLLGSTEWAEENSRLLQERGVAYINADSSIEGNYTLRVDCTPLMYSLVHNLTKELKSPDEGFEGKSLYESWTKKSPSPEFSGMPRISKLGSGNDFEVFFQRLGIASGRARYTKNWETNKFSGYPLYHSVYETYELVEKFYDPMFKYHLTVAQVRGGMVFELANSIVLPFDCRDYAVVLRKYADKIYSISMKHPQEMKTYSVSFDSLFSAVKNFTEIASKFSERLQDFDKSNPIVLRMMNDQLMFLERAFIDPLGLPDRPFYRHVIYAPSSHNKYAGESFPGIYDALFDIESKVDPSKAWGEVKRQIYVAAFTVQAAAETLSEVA
Briefly: flow cytometry cell binding assay on LNCaP cells. As to the method: (§2) PSMA×CD3 bispecific antibodies were tested for binding to PSMA positive cell line, LNCAP, to PSMA negative cell line, PC3. To assess the binding capabilities of the PSMA bispecific antibodies, the cell-binding assay was utilized (described previously). Bispecific antibodies were normalized for protein concentration and then incubated with the same number of cells expressing either human or cyno PSMA. The MFI at each concentration was collected by flow cytometry and plotted as a function of concentration. Data was transformed via log 10 and then plotted. Nonlinear regression of binding curves was done to determine EC50s.

Test [5] has as its target T4, human PSMA on cells (LNCaP). Kind of test: flow cytometry cell binding assay on LNCaP cells. How it is done:
as §2
This is another data set of the same source.

T2 sequence (P07766 23-126 limits assumed, chain 1 of 2): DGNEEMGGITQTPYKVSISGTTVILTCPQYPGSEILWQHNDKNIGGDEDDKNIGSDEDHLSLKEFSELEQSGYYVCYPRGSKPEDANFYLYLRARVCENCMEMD
T2 sequence (P04234 22-171 limits assumed, chain 2 of 2): as the sequence (Q95LI8 22-171 limits assumed, chain 2 of 2) above, with V5I, K15N, V20I, T32S, N33D, N34I, A64T, N74S, L83V, R141H counted along it
T1 sequence (P07766 23-207 limits assumed): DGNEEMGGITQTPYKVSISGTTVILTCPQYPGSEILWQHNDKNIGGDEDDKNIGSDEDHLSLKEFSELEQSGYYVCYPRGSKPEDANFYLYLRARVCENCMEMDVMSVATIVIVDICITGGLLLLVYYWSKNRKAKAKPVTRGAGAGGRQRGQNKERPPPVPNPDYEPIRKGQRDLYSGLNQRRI

B1: BLX-2E9 (antibody, V domains shown)
VH: QVQLQQSGPGLVKPSQTLSLTCAISGDSVFNNNGAWSWIRQSPSRGLEWLGRTYYRSKWLYDYAVSVKSRITVNPDTSRNQFTLQLNSVTPEDTALYYCARGYSSSFDYWGQGTLVTVSS
VL: QSALTQPASVSGSPGQSITISCTGTSSNIGTYKFVSWYQQHPDKAPKVLLYEVSKRPSGVSSRFSGSKSGNTASLTISGLQAEDQADYHCCSYAGSGTLLFGGGTKLTVL
notes: OmniRat hybridoma supernatant: human V regions on rat constant regions; also called V regions cloned as CD3B315 (CD3H221/CD3L124)
In the case of B1, the “% positive” value is 72% in test [1], 127% in test [2] and 66% in test [3]. In addition, the geomean in test [1] was 199000 geometric mean fluorescence. The Rfu was 867 rfu in test [2] and 320 rfu in test [3].

B2: BLX-3F4 (antibody, V domains shown)
VH: B1 VH with Q3R, G34A, S66T, N87T
VL: B1 VL
notes: OmniRat hybridoma supernatant: human V regions on rat constant regions; also called V regions cloned as CD3B316 (CD3H222/CD3L124)
For B2, the results for the “% positive” value in test [1], in test [2] and in test [3] were 66%, 131% and 76%, respectively. Moreover, the geomean in test [1] was 182000 geometric mean fluorescence. In addition, the Rfu in test [2] is 896 rfu; in test [3], 371 rfu.

B3: BLX-3G8 (antibody, V domains shown)
VH: B1 VH with G34A, S37T, N87K, A100S
VL: B1 VL
notes: OmniRat hybridoma supernatant: human V regions on rat constant regions; also called V regions cloned as CD3B317 (CD3H223/CD3L124)
As to B3, in test [1], the “% positive” value stood at 77% and the geomean was 215000 geometric mean fluorescence. Further, in test [2], the “% positive” value worked out at 111% and the Rfu came to 759 rfu. In addition, in test [3], the “% positive” value amounted to 70% and the Rfu was 340 rfu.

B4: PS3B60 (bispecific antibody, human IgG4 S228P, kappa, F234A L235A)
heavy: not shown
light: not shown
VH: EVQLVESGGGLVQPGGSLRLSCAASGFTFNTYAMNWVRQAPGKGLEWVARIRSKYNNYATYYAASVKGRFTISRDDSKNSLYLQMNSLKTEDTAVYYCARHGNFGNSYVSWFAYWGQGTLVTVSS
VL: QTVVTQEPSLTVSPGGTVTLTCRSSTGAVTTSNYANWVQQKPGQAPRGLIGGTNKRAPGTPARFSGSLLGGKAALTLSGVQPEDEAEYYCALWYSNLWVFGGGTKLTVL
notes: IgG4 PAA; CD3 arm with F405L, R409K; also called PSMB344 x CD3B219
With B4, the binding result in test [4] was “binds”.

B5: PS3B71 (bispecific antibody, human IgG4 S228P, kappa, F234A L235A)
heavy: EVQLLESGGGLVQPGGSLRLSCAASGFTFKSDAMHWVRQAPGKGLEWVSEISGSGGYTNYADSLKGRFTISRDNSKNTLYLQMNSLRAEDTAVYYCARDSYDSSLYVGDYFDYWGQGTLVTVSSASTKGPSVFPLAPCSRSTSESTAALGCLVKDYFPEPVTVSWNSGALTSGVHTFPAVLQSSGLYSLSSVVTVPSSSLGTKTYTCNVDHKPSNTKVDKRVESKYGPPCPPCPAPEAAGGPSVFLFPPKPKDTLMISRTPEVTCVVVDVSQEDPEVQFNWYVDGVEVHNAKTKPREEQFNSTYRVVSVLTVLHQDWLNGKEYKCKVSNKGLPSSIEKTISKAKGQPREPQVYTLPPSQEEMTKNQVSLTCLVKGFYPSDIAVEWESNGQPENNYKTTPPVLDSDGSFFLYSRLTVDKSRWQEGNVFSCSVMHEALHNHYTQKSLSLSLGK
light: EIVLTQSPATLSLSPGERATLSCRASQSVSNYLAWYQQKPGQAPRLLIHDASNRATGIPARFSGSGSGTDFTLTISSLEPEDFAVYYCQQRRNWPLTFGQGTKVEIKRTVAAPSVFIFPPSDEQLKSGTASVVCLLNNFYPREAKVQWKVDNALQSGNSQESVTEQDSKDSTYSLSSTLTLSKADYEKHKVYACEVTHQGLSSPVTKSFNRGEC
VH: B4 VH
VL: B4 VL
notes: IgG4 PAA; CD3 arm with F405L, R409K; also called PSMB359 x CD3B219
Regarding B5, the concentration giving a half-maximal response (EC50 (read off the curve)) in test [4] was roughly 8 nM.

B6: PS3B73 (bispecific antibody, human IgG4 S228P, kappa, F234A L235A)
heavy: not shown
light: not shown
VH: B4 VH
VL: B4 VL
notes: IgG4 PAA; CD3 arm with F405L, R409K; also called PSMB361 x CD3B219
For B6, in test [4], the binding result is reported as “binds”.

B7: PS3B62 (bispecific antibody, human IgG4 S228P, kappa, F234A L235A)
heavy: not shown
light: not shown
VH: B4 VH
VL: B4 VL
notes: IgG4 PAA; CD3 arm with F405L, R409K; also called PSMB346 x CD3B219
For the molecule B7, the binding result in test [4] is “binds”.

B8: PS3B61 (bispecific antibody, human IgG4 S228P, kappa, F234A L235A)
heavy: not shown
light: not shown
VH: B4 VH
VL: B4 VL
notes: IgG4 PAA; CD3 arm with F405L, R409K; also called PSMB345 x CD3B219
For the molecule B8, in test [4], the binding result was “binds”.

B9: PS3B64 (bispecific antibody, human IgG4 S228P, kappa, F234A L235A)
heavy: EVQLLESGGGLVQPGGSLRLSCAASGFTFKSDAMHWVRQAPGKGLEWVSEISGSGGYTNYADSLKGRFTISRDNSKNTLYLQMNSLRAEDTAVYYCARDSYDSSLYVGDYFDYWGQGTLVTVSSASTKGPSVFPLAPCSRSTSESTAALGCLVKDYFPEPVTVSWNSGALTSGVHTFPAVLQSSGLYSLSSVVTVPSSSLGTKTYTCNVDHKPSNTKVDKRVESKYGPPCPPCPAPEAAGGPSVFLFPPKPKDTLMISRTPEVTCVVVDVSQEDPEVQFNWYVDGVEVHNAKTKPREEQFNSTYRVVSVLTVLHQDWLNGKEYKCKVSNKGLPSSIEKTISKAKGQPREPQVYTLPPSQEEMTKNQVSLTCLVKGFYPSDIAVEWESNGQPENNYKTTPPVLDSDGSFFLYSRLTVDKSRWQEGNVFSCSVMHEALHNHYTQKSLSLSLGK
light: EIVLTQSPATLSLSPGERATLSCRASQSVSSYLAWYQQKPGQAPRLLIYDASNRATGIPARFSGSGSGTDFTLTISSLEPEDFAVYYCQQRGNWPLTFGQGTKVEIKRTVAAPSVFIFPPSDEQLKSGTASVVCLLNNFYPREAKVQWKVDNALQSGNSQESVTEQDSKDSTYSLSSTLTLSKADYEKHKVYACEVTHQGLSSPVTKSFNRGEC
VH: B4 VH
VL: B4 VL
notes: IgG4 PAA; CD3 arm with F405L, R409K; also called PSMB349 x CD3B219
With B9, the binding result in test [4] is recorded as “binds”.

B10: PS3B70 (bispecific antibody, human IgG4 S228P, kappa, F234A L235A)
heavy: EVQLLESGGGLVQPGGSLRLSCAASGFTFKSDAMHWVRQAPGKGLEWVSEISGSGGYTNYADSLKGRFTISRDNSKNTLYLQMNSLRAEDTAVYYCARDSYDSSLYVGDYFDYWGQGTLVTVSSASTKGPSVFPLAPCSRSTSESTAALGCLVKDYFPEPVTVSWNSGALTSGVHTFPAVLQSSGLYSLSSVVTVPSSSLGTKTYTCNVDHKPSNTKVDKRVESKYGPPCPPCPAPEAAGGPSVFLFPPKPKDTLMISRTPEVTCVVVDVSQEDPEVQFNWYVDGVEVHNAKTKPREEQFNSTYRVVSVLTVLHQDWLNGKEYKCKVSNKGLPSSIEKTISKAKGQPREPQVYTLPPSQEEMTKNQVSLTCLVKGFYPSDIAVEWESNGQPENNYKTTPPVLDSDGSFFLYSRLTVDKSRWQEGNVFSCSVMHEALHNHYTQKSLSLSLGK
light: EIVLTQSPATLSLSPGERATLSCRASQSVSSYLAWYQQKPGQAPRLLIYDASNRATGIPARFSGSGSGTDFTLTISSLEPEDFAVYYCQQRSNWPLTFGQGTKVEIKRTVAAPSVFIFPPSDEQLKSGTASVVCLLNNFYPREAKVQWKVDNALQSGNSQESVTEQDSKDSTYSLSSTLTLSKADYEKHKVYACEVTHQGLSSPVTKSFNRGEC
VH: B4 VH
VL: B4 VL
notes: IgG4 PAA; CD3 arm with F405L, R409K; also called PSMB358 x CD3B219
As for B10, the binding result in test [4] is recorded as “binds”.

B11: PS3B72 (bispecific antibody, human IgG4 S228P, kappa, F234A L235A)
heavy: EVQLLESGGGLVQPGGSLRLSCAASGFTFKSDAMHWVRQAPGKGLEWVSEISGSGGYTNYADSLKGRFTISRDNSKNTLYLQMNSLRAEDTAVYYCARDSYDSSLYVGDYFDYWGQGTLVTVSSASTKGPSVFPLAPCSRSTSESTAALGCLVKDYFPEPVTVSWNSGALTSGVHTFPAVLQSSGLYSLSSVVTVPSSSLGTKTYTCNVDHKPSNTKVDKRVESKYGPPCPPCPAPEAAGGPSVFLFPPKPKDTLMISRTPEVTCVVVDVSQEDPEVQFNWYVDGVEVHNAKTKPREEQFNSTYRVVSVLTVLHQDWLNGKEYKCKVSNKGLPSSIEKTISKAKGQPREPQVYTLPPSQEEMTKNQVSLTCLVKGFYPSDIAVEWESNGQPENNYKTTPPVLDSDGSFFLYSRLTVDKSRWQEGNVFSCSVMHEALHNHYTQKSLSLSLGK
light: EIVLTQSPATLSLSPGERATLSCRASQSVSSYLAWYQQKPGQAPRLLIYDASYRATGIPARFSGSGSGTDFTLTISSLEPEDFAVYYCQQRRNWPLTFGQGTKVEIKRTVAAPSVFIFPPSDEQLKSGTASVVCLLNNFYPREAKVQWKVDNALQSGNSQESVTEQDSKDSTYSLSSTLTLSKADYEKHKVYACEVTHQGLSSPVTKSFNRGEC
VH: B4 VH
VL: B4 VL
notes: IgG4 PAA; CD3 arm with F405L, R409K; also called PSMB360 x CD3B219
For B11, the binding result in test [4] is on record as “binds”.

B12: PS3B74 (bispecific antibody, human IgG4 S228P, kappa, F234A L235A)
heavy: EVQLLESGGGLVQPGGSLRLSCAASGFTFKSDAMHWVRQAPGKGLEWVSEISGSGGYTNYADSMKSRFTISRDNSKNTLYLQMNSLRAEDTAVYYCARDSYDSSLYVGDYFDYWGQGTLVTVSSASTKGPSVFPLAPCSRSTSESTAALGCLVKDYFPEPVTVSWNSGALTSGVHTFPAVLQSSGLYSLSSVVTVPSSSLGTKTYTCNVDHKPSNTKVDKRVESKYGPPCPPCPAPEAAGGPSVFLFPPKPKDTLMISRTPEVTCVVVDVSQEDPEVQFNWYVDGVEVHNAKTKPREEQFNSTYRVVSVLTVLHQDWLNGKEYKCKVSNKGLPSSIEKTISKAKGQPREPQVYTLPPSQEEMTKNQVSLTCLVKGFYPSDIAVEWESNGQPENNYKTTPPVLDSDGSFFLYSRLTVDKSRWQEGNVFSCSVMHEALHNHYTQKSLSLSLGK
light: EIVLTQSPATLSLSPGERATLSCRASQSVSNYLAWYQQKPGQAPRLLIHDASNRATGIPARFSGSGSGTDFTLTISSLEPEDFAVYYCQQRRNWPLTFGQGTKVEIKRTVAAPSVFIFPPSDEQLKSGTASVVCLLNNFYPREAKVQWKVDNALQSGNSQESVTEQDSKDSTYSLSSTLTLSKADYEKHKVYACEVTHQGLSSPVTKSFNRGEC
VH: B4 VH
VL: B4 VL
notes: IgG4 PAA; CD3 arm with F405L, R409K; also called PSMB362 x CD3B219
For the molecule B12, the binding result in test [4] is “binds”.

B13: PS3B63 (bispecific antibody, human IgG4 S228P, kappa, F234A L235A)
heavy: not shown
light: not shown
VH: B4 VH
VL: B4 VL
notes: IgG4 PAA; CD3 arm with F405L, R409K; also called PSMB347 x CD3B219
For B13, in test [4], the “EC50 (read off the curve)” value is roughly 2 nM.

B14: PS3B84 (bispecific antibody, human IgG4 S228P, kappa, lambda, F234A L235A)
heavy 1: not shown
light 1: not shown
heavy 2: QVQLQQSGPRLVRPSQTLSLTCAISGDSVFNNNAAWSWIRQSPSRGLEWLGRTYYRSKWLYDYAVSVKSRITVNPDTSRNQFTLQLNSVTPEDTALYYCARGYSSSFDYWGQGTLVTVSSASTKGPSVFPLAPCSRSTSESTAALGCLVKDYFPEPVTVSWNSGALTSGVHTFPAVLQSSGLYSLSSVVTVPSSSLGTKTYTCNVDHKPSNTKVDKRVESKYGPPCPPCPAPEAAGGPSVFLFPPKPKDTLMISRTPEVTCVVVDVSQEDPEVQFNWYVDGVEVHNAKTKPREEQFNSTYRVVSVLTVLHQDWLNGKEYKCKVSNKGLPSSIEKTISKAKGQPREPQVYTLPPSQEEMTKNQVSLTCLVKGFYPSDIAVEWESNGQPENNYKTTPPVLDSDGSFLLYSKLTVDKSRWQEGNVFSCSVMHEALHNHYTQKSLSLSLGK
light 2: QSALTQPASVSGSPGQSITISCTGTSSNIGTYKFVSWYQQHPDKAPKVLLYEVSKRPSGVSSRFSGSKSGNTASLTISGLQAEDQADYHCVSYAGSGTLLFGGGTKLTVLGQPKAAPSVTLFPPSSEELQANKATLVCLISDFYPGAVTVAWKADSSPVKAGVETTTPSKQSNNKYAASSYLSLTPEQWKSHRSYSCQVTHEGSTVEKTVAPTECS
notes: IgG4 PAA; also called PSMB344 x CD3B376
Regarding B14, in test [5], the binding result is reported as “binds”.

B15: PS3B77 (bispecific antibody, human IgG4 S228P, kappa, lambda, F234A L235A)
heavy 1: not shown
light 1: not shown
heavy 2: B14 heavy 2
light 2: B14 light 2
notes: IgG4 PAA; also called PSMB349 x CD3B376
For B15, the binding result in test [5] is given as “binds”.

B16: PS3B83 (bispecific antibody, human IgG4 S228P, kappa, lambda, F234A L235A)
heavy 1: not shown
light 1: not shown
heavy 2: B14 heavy 2
light 2: B14 light 2
notes: IgG4 PAA; also called PSMB363 x CD3B376
As to B16, in test [5], the binding result is recorded as “binds”.

B17: PS3B82 (bispecific antibody, human IgG4 S228P, kappa, lambda, F234A L235A)
heavy 1: not shown
light 1: not shown
heavy 2: B14 heavy 2
light 2: B14 light 2
notes: IgG4 PAA; also called PSMB362 x CD3B376
As for B17, in test [5], the binding result is “binds”.

B18: PS3B81 (bispecific antibody, human IgG4 S228P, kappa, lambda, F234A L235A)
heavy 1: not shown
light 1: not shown
heavy 2: B14 heavy 2
light 2: B14 light 2
notes: IgG4 PAA; also called PSMB361 x CD3B376
With B18, in test [5], the binding result is “binds”.

B19: PS3B85 (bispecific antibody, human IgG4 S228P, kappa, lambda, F234A L235A)
heavy 1: not shown
light 1: not shown
heavy 2: B14 heavy 2
light 2: B14 light 2
notes: IgG4 PAA; also called PSMB345 x CD3B376
Regarding B19, the binding result in test [5] is listed as “binds”.

B20: PS3B80 (bispecific antibody, human IgG4 S228P, kappa, lambda, F234A L235A)
heavy 1: not shown
light 1: not shown
heavy 2: B14 heavy 2
light 2: B14 light 2
notes: IgG4 PAA; also called PSMB347 x CD3B376
For B20, the binding result in test [5] is “binds”.

B21: PS3B78 (bispecific antibody, human IgG4 S228P, kappa, lambda, F234A L235A)
heavy 1: not shown
light 1: not shown
heavy 2: B14 heavy 2
light 2: B14 light 2
notes: IgG4 PAA; also called PSMB359 x CD3B376
For the molecule B21, the binding result in test [5] is on record as “binds”.

B22: PS3B86 (bispecific antibody, human IgG4 S228P, kappa, lambda, F234A L235A)
heavy 1: not shown
light 1: not shown
heavy 2: B14 heavy 2
light 2: B14 light 2
notes: IgG4 PAA; also called PSMB346 x CD3B376
In the case of B22, the binding result in test [5] is on record as “binds”.

B23: PS3B76 (bispecific antibody, human IgG4 S228P, kappa, lambda, F234A L235A)
heavy 1: not shown
light 1: not shown
heavy 2: B14 heavy 2
light 2: B14 light 2
notes: IgG4 PAA; also called PSMB358 x CD3B376
For the molecule B23, the binding result in test [5] was “binds”.

B24: PS3B79 (bispecific antibody, human IgG4 S228P, kappa, lambda, F234A L235A)
heavy 1: not shown
light 1: not shown
heavy 2: B14 heavy 2
light 2: B14 light 2
notes: IgG4 PAA; also called PSMB360 x CD3B376
As for B24, in test [5], the binding result is given as “binds”.
